Like-named read-outs stand apart in the source and are kept apart here.
What was measured:
Assay in all cases: non-reducing SDS-PAGE of disulfide-linked products after anti-HA IP
[1] = target: HA-tagged human DAP12 aspartic acid-to-glutamine mutant (human)
[2] = target: HA-tagged human DAP12 aspartic acid-to-asparagine mutant (human)
[3] = target: HA-tagged human DAP12 aspartic acid-to-asparagine mutant (human); remark: listed apart in the source
[4] = target: HA-tagged human DAP12 aspartic acid-to-glutamic acid mutant (human)
[5] = target: HA-tagged human DAP12 threonine-to-alanine mutant (human)
[6] = target: HA-tagged human DAP12 aspartic acid-to-alanine mutant (human)

In the case of “HA-tagged human DAP12 aspartic acid-to-glutamine mutant (natural protein)”, the stoichiometry N [1] is reported as 2.

In the case of “HA-tagged human DAP12 aspartic acid-to-asparagine mutant (natural protein)”, the stoichiometry N [2] is reported as 3 and the stoichiometry N [3] is reported as 2.

“HA-tagged human DAP12 aspartic acid-to-glutamic acid mutant (natural protein)” gave a stoichiometry N [4] of 2.

“HA-tagged human DAP12 threonine-to-alanine mutant (natural protein)” gave a fold decrease of trimer compared to WT [5] of 5 fold, a fold increase of tetramer compared to WT [5] of 2 fold and a stoichiometry N [5] of 2.

Work on “HA-tagged human DAP12 aspartic acid-to-alanine mutant (natural protein)” yielded a fold reduction of tetramer compared to WT [6] of 2 fold, a fold reduction of trimer compared to WT [6] of 10 fold and a stoichiometry N [6] of 2.
